Experimental data taken from paper PMC8176726.

Tests used:
[1] = system: His6-CssR (Corynebacterium glutamicum RES167); test: EMSA; conditions: apparent KD; EMSA: 10 mM Tris-HCl pH 7.4, 5 mM MgCl2, 50 mM KCl, 5% glycerol, 0.1% NP40, 1 ug poly(dI:dC), 0.5 mM EDTA, 20 ng DNA in 20 ul, room temperature 30 min
[2] = system: T1, His6-CssR (Corynebacterium glutamicum RES167), ORF:46f2a94e; test: EMSA; conditions: EMSA: 10 mM Tris-HCl pH 7.4, 5 mM MgCl2, 50 mM KCl, 5% glycerol, 0.1% NP40, 1 ug poly(dI:dC), 0.5 mM EDTA, 20 ng DNA in 20 ul, room temperature 30 min
T1 sequence: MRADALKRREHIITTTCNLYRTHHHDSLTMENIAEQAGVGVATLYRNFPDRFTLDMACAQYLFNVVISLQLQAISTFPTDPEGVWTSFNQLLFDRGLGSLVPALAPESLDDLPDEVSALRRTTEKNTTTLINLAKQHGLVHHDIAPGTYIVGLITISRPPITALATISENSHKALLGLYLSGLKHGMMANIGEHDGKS

[3] = system: T1, His6-CssR (Corynebacterium glutamicum RES167), ORF:46f2a94e; test: DNase I footprinting; conditions: EMSA: 10 mM Tris-HCl pH 7.4, 5 mM MgCl2, 50 mM KCl, 5% glycerol, 0.1% NP40, 1 ug poly(dI:dC), 0.5 mM EDTA, 20 ng DNA in 20 ul, room temperature 30 min
[4] = target: His6-CssR (C. glutamicum stress-sensing regulator, NCgl1578) (Corynebacterium glutamicum RES167); test: SEC; Superdex 75 10/300 GL, 50 mM potassium phosphate pH 7.4, 0.15 M NaCl; calibrated with a low molecular weight gel filtration kit (Kav versus log molecular weight); native mass 52 kDa

Substance | binding [2] | other results
131-bp PcssR |  | Kd [1]: 17 nM
AACACCGCGAATTATAGACTGAACTGGTACTTGGGAAGCTTTTTATAGTCATATGCGTTGAGATACGTGGACGACAAAGCACCAGTTAGTTGCCTTCCCAGTCCAGCCCACATCCGATTTCTAAATTAGGAGCACATC (double strand) [mtr promoter] | no binding | 
CGTAATTATTTCCGCGACAAGCTATTTGCAAGCTATGTGCAGGCTCATTGCACAAGTTCAGCGCGGAGACACGTCCTAAAAAATACTTATGAAATTATGTTCGACACCGAAATGTCACCTGAAACTTCAACCAAGCCGCCAGTGCACCTATTCCACAAACCAAAAAATCCGCCAACACGAATGCGGCGGATTTTTAAGATGTACAGG (double strand) [mshC promoter] | no binding | 
CGTTTTAGTGCGTCTGCTCTCATGTTGTTGTCCTCTAGTTGACAGCGGGGGTGGTGGTGGTCCTAAAATAGCCTACGATAACTGATAGTGTTTCCTCCACTTACGGAAGAAGATACATGAATACCCCTCTTTTGAGAAGCTCTGGGCTCTCCATCCGCGACACACCCTTCGCCGATGTTGAGATAGCTCCAGACAGCGGACTCAC (double strand) [PcssR footprint fragment] |  | binding [3]: binds
GAAGTTTTTCAAAGTGTCTGACGTTGAAAACGGTGAGTTCACAACTAGGGTGAATGGTGCACGTGATGCTGCACTTTTACGTTTACTACTTTGAGGGAAAC (double strand) [trx promoter] | no binding | 
GATCACCGCATGTGAAACAAGCGGATACGCAATGAGCATCCCCCACGCCCACTGCACATTAAACACCCAATTCAACACCGCAAAACCCACCAAAAACAGCAGCGTCGCGATCACACAAGCAGCGTCAGATCTTTGCGGCATAGCGCCATC (double strand) [mrx1 promoter] | no binding | 
GGTATTGGGCGCATGCCATGTCCAGTGTGAAGCGATCGGGGAAGTTTCGGTATAAAGTTGCAACACCCACTCCTGCCTGTTCTGCAATGTTTTCCATGGTGAGCGAATCGTGATGGTGTGTGCGGTAGAG (double strand) [131-bp cssR coding region control] | no binding | 
GTTGTTGTCCTCTAGTTGACAGCGGGGGTGGTGGTGGTCCTAAAATAGCCTACGATAACTGATAGTGTTTCCTCCACTTACGGAAGAAGATACATGAATACCCCTCTTTTGAGAAGCTCTGGGCTCTCCAT (double strand) [131-bp PcssR] | binds | Kd [2]: 17 nM
His6-CssR (C. glutamicum stress-sensing regulator, NCgl1578) (natural protein) |  | stoichiometry N [4]: 2
